# Biological target: SerRS WT (Homo sapiens, UniProt P49591 1-514)
# Assay: EMSA; EMSA: 20 mM Tris-HCl pH 8.0, 60 mM KCl, 5 mM MgCl2, 0.1 mg/mL BSA, 10 ng/uL poly(dG-dC), 1 mM DTT, 30 min, room temperature; 0.08 pmol labeled DNA; 5% native PAGE
# Conditions: protein: recombinant; tags: C-terminal His6; chain copies: 2; label: 5'-32P; annealed oligonucleotides
# Chain of SerRS WT (P49591 whole entry): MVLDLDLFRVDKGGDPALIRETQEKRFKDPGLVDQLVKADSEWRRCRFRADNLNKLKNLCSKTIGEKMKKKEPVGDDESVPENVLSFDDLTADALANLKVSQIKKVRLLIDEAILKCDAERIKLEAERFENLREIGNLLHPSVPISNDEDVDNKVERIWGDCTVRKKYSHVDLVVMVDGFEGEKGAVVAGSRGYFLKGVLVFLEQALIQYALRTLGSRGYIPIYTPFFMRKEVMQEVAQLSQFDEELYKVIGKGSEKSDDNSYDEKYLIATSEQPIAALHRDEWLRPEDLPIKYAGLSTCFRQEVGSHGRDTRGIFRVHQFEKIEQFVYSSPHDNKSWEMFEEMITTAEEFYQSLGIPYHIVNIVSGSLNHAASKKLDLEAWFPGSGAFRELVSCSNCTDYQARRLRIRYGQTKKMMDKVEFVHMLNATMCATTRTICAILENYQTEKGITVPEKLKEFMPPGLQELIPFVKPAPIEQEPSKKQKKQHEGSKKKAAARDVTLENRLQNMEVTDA
binder,measurement,value
VEGFA promoter SerRS binding site 27 bp (dsDNA) DNA 1: GGCGGGGCGGAGCCATGCGCCCCCCCC DNA 2: GGGGGGGGCGCATGGCTCCGCCCCGCC,binding result,binds
